No end group written: not given here.
Tests used:
[1] = molecular target: I-A^g7 (mouse (NOD; endogenous in 4G4.7 hybridoma)); test: ELISA
purified I-A^g7 [2] = molecular target: T1, purified I-A^g7 (Mus musculus, UniProt P04228+Q31135); test: biochemical; assay type: binding, NOD mouse
T1 sequence (P04228 24-256): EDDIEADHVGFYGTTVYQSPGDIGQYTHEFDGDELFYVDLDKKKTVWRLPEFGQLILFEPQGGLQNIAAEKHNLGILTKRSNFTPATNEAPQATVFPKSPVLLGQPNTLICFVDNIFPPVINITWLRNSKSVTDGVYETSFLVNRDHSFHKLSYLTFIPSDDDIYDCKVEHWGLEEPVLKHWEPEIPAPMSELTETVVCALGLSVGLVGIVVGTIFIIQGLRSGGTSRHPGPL
T1 sequence (Q31135 1-263): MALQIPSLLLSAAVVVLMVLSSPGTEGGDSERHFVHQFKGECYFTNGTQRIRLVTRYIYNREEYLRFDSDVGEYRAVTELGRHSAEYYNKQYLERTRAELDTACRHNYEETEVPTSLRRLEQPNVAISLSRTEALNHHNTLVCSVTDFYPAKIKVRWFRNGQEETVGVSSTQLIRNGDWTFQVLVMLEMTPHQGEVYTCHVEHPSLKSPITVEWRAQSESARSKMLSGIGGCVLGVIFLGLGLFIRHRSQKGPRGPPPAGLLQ

purified I-A^g7 [3] = test: biochemical; assay type: binding, NOD mouse
purified I-A^g7 [4] = conditions: cited from earlier work

| Substance | IC50 [1] | also measured |
| --- | --- | --- |
| HEL 10–22 L17V (peptide) | < 1000 nM | – |
| HEL 9–25 (peptide) | 300 nM | – |
| HEL 10–22 R21P (peptide) | 350 nM | – |
| HEL 10–22 G22A (peptide) | 350 nM | – |
| human proinsulin 25–39 (peptide) | 1000 nM | – |
| HEL 10–22 A10L (peptide) | 300 nM | – |
| HEL 17–27 (peptide) | > 50000 nM | – |
| HEL 10–22 Y20M (peptide) | 1000 to 10000 nM | – |
| HEL 10–22 G16D (peptide) | 2000 nM | – |
| AAAMKRHGLDNYRGYSLG-NH2 [HEL 9–26] | – | IC50 (purified I-A^g7 [2]): 300 nM |
| HEL 10–22 H15A (peptide) | 300 nM | – |
| AAAMKRHGLDNYR-NH2 [HEL 9–21] | – | IC50 (purified I-A^g7 [2]): 300 nM |
| HEL 10–22 N19R (peptide) | 1000 to 10000 nM | – |
| HEL 16–27 (peptide) | > 50000 nM | – |
| HEL 10–22 Y20R (peptide) | < 1000 nM | – |
| HEL 14–27 (peptide) | 2000 nM | – |
| HEL 9–22 (peptide) | 300 nM | – |
| KPKATAEQLKTVMDD [In serum albumin (560–574), reference compound] | – | binding to I-A^g7 (in words) (purified I-A^g7 [3]): did not bind |
| HEL 9–27 (peptide) | 350 nM | – |
| HEL 10–22 Y20H (peptide) | 1000 to 10000 nM | – |
| HEL 10–22 Y20Q (peptide) | 2000 nM | – |
| human proinsulin 5–19 (peptide) | 30000 nM | – |

| Substance | IC50 [1] | also measured |
| --- | --- | --- |
| HEL 10–22 Y20F (peptide) | < 1000 nM | – |
| MKRHGLDNYRGYSLGN-NH2 [HEL 12–27] | – | IC50 (purified I-A^g7 [2]): 300 nM |
| HEL 9–26 (peptide) | 300 nM | – |
| human proinsulin 49–63 (peptide) | 1000 nM | – |
| AAAMKRHGLDNYRGYSLGN-NH2 [HEL 9–27] | – | IC50 (purified I-A^g7 [2]): 350 nM |
| HEL 10–22 N19Q (peptide) | 2000 nM | – |
| HEL 10–22 L17M (peptide) | < 1000 nM | – |
| HEL 13–22 (peptide) | 250 nM | – |
| AAAMKRHGLDNYRGYSL-NH2 [HEL 9–25] | – | IC50 (purified I-A^g7 [2]): 300 nM |
| HEL 11–25: HEL peptide tested by Carrasco-Marin et al. (AMKRHGLDNYRGYSL; UniProt P00698 29-43, looked up, fragment) | – | direct binding to purified I-A^g7 (purified I-A^g7 [4]): unable to demonstrate direct binding |
| HEL 10–22 D18P (peptide) | 300 nM | – |
| HEL 10–22 D18R (peptide) | < 1000 nM | – |
| HEL 10–22 D18E (peptide) | < 1000 nM | – |
| HEL 10–22 G22Y (peptide) | 300 nM | – |
| KRHGLDNYRGYSLGN-NH2 [HEL 13–27] | – | IC50 (purified I-A^g7 [2]): 300 nM |
| HEL 18–27 (peptide) | > 50000 nM | – |
| HEL 10–27 (peptide) | 300 nM | – |
| HEL 11–27 (peptide) | 300 nM | – |
| HEL 10–22 A11Y (peptide) | 350 nM | – |
| HEL 10–22 D18Q (peptide) | 200 nM | – |
| MKRHGLDNYRGY-NH2 [HEL 12–23] | – | IC50 (purified I-A^g7 [2]): 250 nM |
| HEL 10–22 R14W (peptide) | 1000 to 10000 nM | – |

| Substance | IC50 [1] | also measured |
| --- | --- | --- |
| HEL 10–22 (peptide) | 295 nM | – |
| HEL 10–22 L17H (peptide) | 1000 to 10000 nM | – |
| HEL 10–22 L17T (peptide) | 1000 to 10000 nM | – |
| HEL 10–22 Y20W (peptide) | 1000 to 10000 nM | – |
| HEL 19–27 (peptide) | > 50000 nM | – |
| RHGLDNYRGYSLGN-NH2 [HEL 14–27] | – | IC50 (purified I-A^g7 [2]): 2000 nM |
| KRHGLDNYRGY-NH2 [HEL 13–23] | – | IC50 (purified I-A^g7 [2]): 200 nM |
| HEL 13–27 (peptide) | 300 nM | – |
| HEL 10–22 L17N (peptide) | 1000 to 10000 nM | – |
| HEL 9–21 (peptide) | 300 nM | – |
| HEL 9–24 (peptide) | 200 nM | – |
| HEL 10–22 R14G (peptide) | 1000 to 10000 nM | – |
| HEL 10–22 G22P (peptide) | 650 nM | – |
| HEL 10–22 R21K (peptide) | 350 nM | – |
| HEL 10–22 R14S (peptide) | 1000 to 10000 nM | – |
| human proinsulin 21–35 (peptide) | 1000 nM | – |
| HEL 10–22 K13A (peptide) | 300 nM | – |
| HEL 10–22 N19F (peptide) | 1000 to 10000 nM | – |
| HEL 12–23 (peptide) | 250 nM | – |
| KRHGLDNYRG-NH2 [HEL 13–22] | – | IC50 (purified I-A^g7 [2]): 250 nM |
| HEL 10–22 L17F (peptide) | 1000 to 10000 nM | – |
| HGLDNYRGYSLGN-NH2 [HEL 15–27] | – | IC50 (purified I-A^g7 [2]): 20000 nM |

| Substance | IC50 [1] | also measured |
| --- | --- | --- |
| HEL 9–17 (peptide) | > 50000 nM | – |
| HEL 10–22 K13Y (peptide) | 250 nM | – |
| HEL 13–23 (peptide) | 200 nM | – |
| HEL 10–22 Y20N (peptide) | 1000 to 10000 nM | – |
| HEL 10–22 L17I (peptide) | < 1000 nM | – |
| HEL 10–22 H15D (peptide) | 1750 nM | – |
| HEL 10–22 N19G (peptide) | < 1000 nM | – |
| AAMKRHGLDNYRGYSLGN-NH2 [HEL 10–27] | – | IC50 (purified I-A^g7 [2]): 300 nM |
| AMKRHGLDNYRGYSLGN-NH2 [HEL 11–27] | – | IC50 (purified I-A^g7 [2]): 300 nM |
| HEL 10–22 R14A (peptide) | 300 nM | – |
| AAAMKRHGLDNYRGYS-NH2 [HEL 9–24] | – | IC50 (purified I-A^g7 [2]): 200 nM |
| AAAMKRHGLDNYRG-NH2 [HEL 9–22] | – | IC50 (purified I-A^g7 [2]): 300 nM |
| HEL 10–22 N19D (peptide) | 2000 nM | – |
| HEL 10–22 N19S (peptide) | < 1000 nM | – |
| HEL 10–23 (peptide) | 295 nM | – |
| HEL 10–22 N19E (peptide) | 1000 to 10000 nM | – |
| HEL 10–22 D18Y (peptide) | 100 nM | – |
| HEL 10–22 R21Y (peptide) | 300 nM | – |
| HEL 12–27 (peptide) | 300 nM | – |
| HEL 10–22 N19Y (peptide) | > 50000 nM | – |
| human proinsulin 9–23 (peptide) | 1000 nM | – |
